Assay [1] addresses Recombinant S1 protein of MERS-CoV (MERS-CoV) (UniProt K9N5Q8).
In assay [2] the target is Recombinant S1 protein of SARS-CoV-2 (SARS-CoV-2) (UniProt P0DTC2).

For “6×His tag-AVI tag-DPP4 fusion protein, biotinylated and labeled with color latex (L-SB-DPP4) (receptor; other documents disagree on this pair)”, in assay [1], the sensitivity of the test strip worked out at 10 nM.

“ACE2-AVI tag-6×His tag fusion protein, biotinylated and labeled with color latex (L-SB-ACE2) (receptor; other documents disagree on this pair)”: the sensitivity of the test strip in assay [2] was 10 nM.

For the origin of these results see patent publication US20230212589A1.
